These results are taken from patent US20190375786A1, “STABLE PEPTIDES AND METHODS OF USE THEREOF” (Fred Hutchinson Cancer Research Center, priority 2016, published 2019).

Series [1] addresses T1, pepsin (Sus scrofa, UniProt P00791). The series can be described thus: Pepsin digestion resistance in simulated gastric fluid, RP-HPLC. Format: in vitro ADME, porcine. The arrangement: purchased Sigma Aldrich P7012. Particulars: HPLC; for resistance to pepsin digestion (in words): 500 U/ml pepsin (50 U per reaction) in SGF, 30 minutes at 37.5° C. The method in brief: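 Digestion resistance read by reversed-phase HPLC (C-18, 0.1% TFA, 5–45% acetonitrile over 10 min; 214/280 nm) after 12.5 μg peptide spent 30 min at 37.5 °C in pH 1.05 simulated gastric fluid, with or without 500 U/ml pepsin. Some samples quenched with Tris base and DTT.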

Series [2] is described as follows: Stability in simulated gastric fluid (SGF, pH 1.05), RP-HPLC. The series is classed as physicochemical. The settings on record: HPLC vs non-reduced peptide. The procedure: (§1) Peptides were first suspended in 500 ul of ddH2O to a stock concentration of 2 mg/ml. Reactions were prepared by adding 12.5 ug of peptide from the stock solution to a 10 mM solution of DTT in PBS and allowed to incubate at room temperature for 30 minutes. Other reactions were prepared with 12.5 μg peptide with or without 500 U/ml pepsin in simulated gastric fluid (SGF; pH 1.05; […] sodium chloride in 0.7% (v/v) hydrochloric acid) and were incubated for 30 minutes at 37.5° C. Some reactions were quenched with a final concentration of 100 mM Tris base and 10 mM dithiothreitol (DTT). Some reactions were performed in all of the above components, including simulated gastric fluid, pepsin, Tris, and DTT (referred to as SPTD). Reversed phase HPLC (RP-HPLC) was run on samples using an Agilent 1260 HPLC equipped with a C-18 Poroshell 120B column. Sample were analyzed by a gradient method with a mobile phase of Solvent A (water with 0.1% TFA) and Solvent B (acetonitrile with 0.1% TFA). Solvent B was ramped up from 5%-45% of the mobile phase over a period of 10 minutes. Peptides were detected at an absorbance of 214 nm and 280 nm.
This example illustrates peptide stability in biological conditions including in the presence of reducing agents, proteases, oxidative conditions, acidic conditions, and simulated gastric fluids. […] Various peptides were suspended in 500 μl of ddH2O at a stock concentration of 2 mg/ml. This was then diluted in accord with the reaction conditions to prevent adverse buffering effects. Reactions were prepared with 12.5 μg peptide dissolved in solution and, in some samples, additionally suspended in a 10 mM solution of DTT, simulated gastric fluid (pH 1.05; […] sodium chloride in 0.7% (v/v) hydrochloric acid), 500 U pepsin (5000 U/ml pepsin), 50 U trypsin (500 U/ml trypsin) with 1 mg/ml inhibitor in PBS, or a combination of any of these conditions. All protease reactions were incubated for 30 min at room temperature and then quenched. Pepsin reactions were quenched by adding Tris base to a final concentration of 0.075 M. Trypsin reactions were quenched by adding excess soybean trypsin inhibitor. RP-HPLC was then run on samples using an Agilent 1260 HPLC equipped with a C-18 Poroshell 120B column. Sample were analyzed by a gradient method with a mobile phase of Solvent A (water with 0.1% TFA) and Solvent B (acetonitrile with 0.1% TFA). Solvent B was ramped up from 5%-45% of the mobile phase over a period of 10 minutes.

Another series has as its target trypsin (Sus scrofa, UniProt P00761). The series can be described thus: Trypsin digestion resistance of soluble peptide, RP-HPLC. The series is classed as in vitro ADME, porcine. The arrangement: purchased Sigma Aldrich 6567. Particulars: HPLC; for resistance to trypsin digestion (in words): 500 U/ml trypsin (50 U per reaction), 30 minutes at 37.5° C. The method in brief:
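Read-out was RP-HPLC (C-18, water/acetonitrile with 0.1% TFA, 5-45% over 10 min) of peptide left after trypsin treatment. Digest: 12.5 μg peptide, 500 U/ml porcine trypsin, PBS, 37.5° C for 30 min, stopped by soybean trypsin inhibitor; samples then reduced (10 mM DTT) or left non-reduced.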

The target in series [3] is T1, pepsin. Briefly: Stability in SPTD (simulated gastric fluid, pepsin, Tris and DTT), RP-HPLC. The series is classed as in vitro ADME. The settings on record: SGF pH 1.05 with 500 U/ml pepsin, 100 mM Tris, 10 mM DTT. The procedure:
as §1

The next series has as its system TEAD protein. Briefly: Binding of surface-displayed (SDGF) peptide to biotinylated target protein after reducing agent, flow cytometry. The settings on record: HEK-293 cells displaying peptide, 20 nM biotinylated target protein. Format: cell-based. The procedure: Designed or engineered peptides of this disclosure were also tested to evaluate if the peptides' binding activity to their target protein (e.g., TEAD protein) was affected by exposure to reducing conditions. HEK-293T suspension cells were transfected with a surface display GFP FasL(SDGF) vector comprising SEQ ID NO: 39 (SDGF-SEQ ID NO: 39) or SDGF vector comprising SEQ ID NO: 43 (SDGF-SEQ ID NO: 43) construct. Cultures were grown for two days, followed by incubation in 10 mM GSH or 10 mM DTT. Finally, cells were stained with biotinylated-target protein to evaluate the binding activity of a peptide to the target protein. FIG. 15 illustrates the stability of peptides of SEQ ID NO: 39 and SEQ ID NO: 43 after exposure to a reducing agent. Each peptide was expressed on a cell surface and tested for binding to a target protein after cells expressing SDGF-SEQ ID NO: 43 or SEQ ID NO: 39 were exposed to a reducing agent. FIG. 15A illustrates a flow cytometry plot showing binding of HEK-293 suspension cells transfected with SDGF-SEQ ID NO: 39 (GFP) incubated for 5 minutes in PBS, 10 mM DTT, or 10 mM reduced glutathione (GSH) before staining with 20 nM biotinylated target protein and 20 nM AF647-streptavidin. FIG. 15B illustrates a flow cytometry plot showing binding of HEK-293 suspension cells transfected with SDGF-SEQ ID NO: 43 (GFP) incubated for 5 minutes in PBS, 10 mM DTT, or 10 mM reduced glutathione (GSH) before staining with 20 nM biotinylated target protein and 20 nM AF647-streptavidin. FIG. 15C illustrates quantification of the AF647 mean fluorescence intensity (MFI) of cells falling within the “slice” gate shown in FIG. 15A and FIG. 15B. […] In other words, peptides of SEQ ID NO: 39 and SEQ ID NO: 43 were resistant to reduction by GSH.

Series [4] in a line: Resistance to reduction by reduced glutathione (GSH), HPLC. The series is classed as physicochemical. Particulars: 10 mM reduced glutathione (GSH); HPLC vs non-reduced peptide. On the procedure: This example describes stability of designed or engineered peptides under reducing conditions. Peptides that are designed or engineered to interact with one or more target proteins in the cell, such as proteins in the nucleus, are exposed to reducing conditions in the cytosolic compartment of cells. Thus, it is advantageous for peptides of this disclosure to display stability in reducing conditions. Stability of peptides of this disclosure was tested in 10 mM DTT and 10 mM GSH. GSH is a more physiologically relevant reducing agent for testing peptide stability in intracellular conditions. An example of a peptide-target protein interaction is a peptide binding to a TEAD protein.

Series [5] is described as follows: SYPRO Orange melting assay. The series is classed as physicochemical. Particulars: heating from 20° C. to 95° C. The procedure:
(§2) Protein secondary structures were assessed using Circular Dichrosim (CD). CD spectra were measured with a Jasco J-720W spectropolarimeter using a 1.0 mm path length cell. Protein samples in 10 mM phosphate buffer (pH=7.4) were at 25-30 μM protein concentration. Samples were analyzed at wavelength ranges of […]. Data were expressed in terms of relative ellipticity [θ]; (mdeg). To determine thermal stability of proteins, samples were subjected to incremental increase in temperature at a ramp of 2° C./min from 20° C. to 95° C. Stability and protein unfolding were monitored at 220 and 215 for α-helix and β-sheet secondary structures, respectively. Data are expressed in terms of relative ellipticity [θ], reported in mdeg. For SEQ ID NO: 43 and its point mutant variants, no changes to the α-helix-dominated structure were observed upon heating up to 95° C. […] Additionally, protein melting temperature (Tm) determination was performed by monitoring protein unfolding using SYPRO Orange dye (Molecular Probes). In brief, 0.1 mg/mL protein sample in 20 μL total volume PBS buffer were mixed with 24, of 10× SYPRO Orange dye. Dye intercalation into the hydrophobic protein core following protein unfolding was assayed using the C1000 Touch Thermal Cycler with CFX96 Deep Well Real-Time System (BioRad). Samples were heated from 20° C. to 95° C. with stepwise increments of 0.5° C. per minute and a 5 sec hold step for every point, followed by fluorescence reading. Tm were calculated by analyzing the derivatives of Relative florescence Units (RFU). FIG. 17D illustrates this SYPRO Orange melting assay of Peptides.

Series [6] is described as follows: Circular dichroism thermal stability, heating 20° C. to 95° C. The series is classed as physicochemical. Particulars: 10 mM phosphate buffer pH 7.4; heated 20° C. to 95° C. On the procedure:
as §2
For orientation: CD spectra are sensitive to the conformation of chiral molecules.

A short description of series [7]: Resistance to reduction by DTT, RP-HPLC. The series is classed as physicochemical. The settings on record: 10 mM DTT; HPLC vs non-reduced peptide. The method, boiled down: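 Peptide (12.5 μg from a 2 mg/ml stock, or 0.015 mM final in PBS) was held 30 min at room temperature with or without 10 mM DTT. Reduced and non-reduced forms were compared by C-18 RP-HPLC using a 5–45% acetonitrile/0.1% TFA gradient over 10 min, with detection at 214 and 280 nm.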

Series [8] in a line: Resistance to elevated temperature, HPLC. The series is classed as physicochemical. Particulars: 100° C. for 1 hour; HPLC. The method, boiled down:
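Peptides were incubated at room temperature, 70° C or 100° C for one hour in ddH2O; another protocol used 70° C, 75° C or 100° C for one hour in 0.5 mM PBS, then pelleting and analysis of the supernatant. Remaining peptide was measured by C-18 RP-HPLC, 5–45% acetonitrile/0.1% TFA over 10 min.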

“Also recorded” adds a separate entry of the source. Positions of bridges follow the written chain, without caps; N, C: chain ends. Residues, ends and D or L forms follow the SMILES beside them.

trypsin, sequence (P00761 9-231): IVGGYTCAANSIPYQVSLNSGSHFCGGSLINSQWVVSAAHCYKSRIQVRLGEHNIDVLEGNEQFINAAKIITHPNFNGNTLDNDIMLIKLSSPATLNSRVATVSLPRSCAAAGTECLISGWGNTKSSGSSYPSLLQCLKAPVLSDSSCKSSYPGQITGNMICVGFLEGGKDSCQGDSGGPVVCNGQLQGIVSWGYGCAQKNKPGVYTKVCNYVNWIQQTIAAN
T1 sequence (P00791 60-385): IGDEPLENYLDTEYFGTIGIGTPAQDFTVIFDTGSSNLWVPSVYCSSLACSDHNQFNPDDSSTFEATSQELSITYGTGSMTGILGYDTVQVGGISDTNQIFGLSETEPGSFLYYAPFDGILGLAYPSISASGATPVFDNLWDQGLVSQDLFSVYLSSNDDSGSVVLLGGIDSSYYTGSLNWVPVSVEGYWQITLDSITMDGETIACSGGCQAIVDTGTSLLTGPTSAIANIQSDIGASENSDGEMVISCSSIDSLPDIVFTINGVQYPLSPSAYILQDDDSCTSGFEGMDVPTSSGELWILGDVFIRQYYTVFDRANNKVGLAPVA

Consider `CC[C@H](C)[C@@H]1NC(=O)[C@@H]2CSSC[C@H](NC(=O)[C@H](CCCCN)NC(=O)[C@@H](NC(=O)[C@H](CC(N)=O)NC(=O)[C@@H](NC(=O)[C@@H]3CCCN3C(=O)[C@@H](NC(=O)CNC(=O)[C@H](CO)NC(=O)CN)C(C)C)[C@@H](C)CC)C(C)C)C(=O)N[C@@H](CCCNC(=N)N)C(=O)NCC(=O)N[C@@H](CO)C(=O)N[C@@H](CCCNC(=N)N)C(=O)N[C@@H](CC(=O)O)C(=O)N[C@H]3CSSC[C@H](NC(=O)[C@H](CCCCN)NC(=O)[C@H](CO)NC(=O)[C@H](CC(N)=O)NC1=O)C(=O)N[C@@H](Cc1c[nH]cn1)C(=O)N[C@H](C(=O)N[C@H](C(=O)N1CCC[C@H]1C(=O)O)[C@@H](C)O)CSSC[C@H](NC(=O)[C@@H]1CCCN1C(=O)[C@H](CC(=O)O)NC(=O)[C@H](CC(C)C)NC3=O)C(=O)N[C@@H](CCCCN)C(=O)N[C@@H](CCCCN)C(=O)N[C@@H](C)C(=O)NCC(=O)N[C@@H](CCSC)C(=O)N[C@@H](CCCNC(=N)N)C(=O)N[C@@H](Cc1ccccc1)C(=O)NCC(=O)N[C@@H](CCCCN)C(=O)N2` [SEQ ID NO: 27] (H-GSGVPINVKCRGSRDCLDPCKKAGMRFGKCINSKCHCTP-OH; disulfide 10-30, 16-35, 20-37), for which the “resistance to pepsin, Example 7 conditions (in words)” value on pepsin [1] (500 U pepsin (5000 U/ml) in SGF, 30 min at room temperature, with or without DTT) is reported as “remained intact”. In addition, at pepsin [1], the “resistance to pepsin digestion (in words)” value is “highly resistant”. In series [2], the “stability in simulated gastric fluid / low pH (in words)” value is recorded as “highly resistant; also recorded: remained intact”. In addition, the “resistance to trypsin, Example 7 conditions (in words)” value on trypsin (50 U trypsin (500 U/ml), 30 min at room temperature, with or without 10 mM DTT) is “remained intact”. Also, the “resistance to trypsin digestion (in words)” value at trypsin is “highly resistant; also recorded: fully resistant”. Besides, the “resistance in SPTD (SGF, pepsin, Tris, DTT) (in words)” value on pepsin [3] is recorded as “highly resistant”.

On to “GSPDEYIERAKECCKKGDIQCCLRYFEESGDPNVMLICLFCP [SEQ ID NO: 39]”, for which the “binding to target protein after DTT treatment” value in the series on TEAD protein (5 minutes in 10 mM DTT) was “partial loss in binding”. In the series on TEAD protein (5 minutes in 10 mM GSH), the “binding to target protein after GSH treatment” value was “no loss in binding”. For the same compound, the “resistance to GSH reducing conditions” value in series [4] was “resistant”.

Turning to “GSPDEYIERAKECCKKQDIQCCLRIFDESGDPNVMLICLFCW [SEQ ID NO: 44]”, the “melting temperature (Tm)” value in series [5] is on record as “no melting temperature could be determined”. The “CD secondary structure signature before (Pre) and after (Post) incubation at 95° C.” value in [6] is listed as “similar; also recorded: identical”. Also, the “resistance to reduction by DTT (in words)” value (“resistance to reduction” below) in series [7] is listed as “partially resistant”.

Take “GSPDEYIERAKECCKKQDIQCCLRIFDESKDPNVMLICLFCP [SEQ ID NO: 45]”: the “resistance to pepsin digestion (in words)” value with pepsin [1] is listed as “resistant”. The “resistance to incubation at 100° C. (in words)” value in series [8] is given as “resistant”. For the same compound, the “melting temperature (Tm)” value in series [5] was “no melting temperature could be determined”. Besides, the “CD secondary structure signature before (Pre) and after (Post) incubation at 95° C.” value in series [6] was “identical; also recorded: similar”. Also, the “resistance to reduction” value in [7] is given as “partially resistant”.

Take “GSQFTNVSCTTSRECWSVCQRLHNTSRGRCMNRRCRCYS [SEQ ID NO: 2]”: in series [2], the “stability in simulated gastric fluid / low pH (in words)” value is “remained intact”. Also, the “resistance to trypsin digestion (in words)” value with trypsin is given as “highly resistant”. Moreover, in the series with pepsin [3], the “resistance in SPTD (SGF, pepsin, Tris, DTT) (in words)” value is “resistant”. Further, the “resistance to reduction” value in series [7] is recorded as “remained intact; also recorded: highly resistant”.
